According to patent publication US6897017:

What was measured:
Assay in all cases: cell-based or functional assay
[1] = target: GCN4-DHFR[2:I114A] (murine)
[2] = target: WinZip-B2 fused to DHFR[2:I114A] (clone of LibB-DHFR[2:I114A]) (murine) (UniProt P00375)
[3] = target: WinZip-B1-DHFR[2:I114A] (murine) (UniProt P00375)

| Substance | GCN4 zippers among sequences from passage 9 of model competition selection (of 24 sequences) [1] | Frequency of dominant pair at P12, shuffling WinZip-A1 + LibB-DHFR[2:I114A] [2] [%] | Selection factor, shuffling WinZip-A1 + LibB-DHFR[2:I114A] [2] | frequency of the pair among clones sequenced at P10 [2] | Frequency of dominant pair at P12, competition selection (I114A) [3] [%] | Selection factor, competition selection (I114A) [3] | frequency of the pair among colonies sequenced at P10 [3] [%] |
| --- | --- | --- | --- | --- | --- | --- | --- |
| GCN4-DHFR[1] (from UniProt P03069 253-274; P00375 1-107) | 0 | – | – | – | – | – | – |
| WinZip-A1-DHFR[1] (from UniProt P00375 1-107) (designed binder) | – | 67 | 87000 | 3 of 5 clones | 82 | 3.2e+06 | 33 |
